The text below walks through data of patent publication US20050106100A1, “Compounds containing matrix metalloproteinase substrates and methods of their use” (priority 2003, published 2005).

Data set [1] deals with CC(=O)N1CCC[C@H]1C(=O)N[C@@H](CC(C)C)C(=O)NCC(=O)N[C@@H](CCc1ccccc1)C(=O)N[C@@H](Cc1ccc(O)cc1)C(=O)N[C@@H](CC(C)C)C(=O)NNC(=O)c1ccc(N/N=C/c2ccccc2S(=O)(=O)ON)nc1. The data set is described as follows: Kinetic measurements of substrate hydrolysis by active MMP-9 (radio HPLC assay). It is filed as biochemical, human. The settings on record: other: active MMP-9 final concentration 2 nM, 37° C., 60 minutes, radiolabeled test substrate, pH 7.5.
Method: (§1) Purified MMP-2 (10 μg) or MMP-9 (10 μg) were reconstituted in 100 μL of TCN buffer. […] Pro-MMP-2 was activated by incubation with 2 nM APMA for 2 hours at 37° C. At the end of incubation 100 μl of 100% glycerol was added to active MMP-2 and active MMP-9 (final concentration 50% glycerol). Active MMP-2 and active MMP-9 were aliquoted and stored at −20° C.
(§2) The level of active protease was always quantified by active site titration studies prior to kinetic studies. The active site of MMP-9 and MMP-2 was titrated using the GM6001 dissolved in 100% DMSO at a stock concentration of 2.5 mM. Dilutions (1:2) of GM6001 were prepared in TCN buffer to give a final concentration of 5 nM to 0.04 nM GM6001 in the active site titration assay. Activated MMP-2 or activated MMP-9 (2 nM) was preincubated with increasing concentrations of GM60001 at 37° C. for 15 minutes in 96 well black microtiter plates. […] Plates were read on fluorescence spectrophotometer at excitation wavelength of 320 nm and emission wavelength of 395 nm. The concentration of the active enzyme was determined using the Morrison equation and Kaleidagraph software (Reading, Pa.).
(§3) The kinetic parameters of substrate hydrolysis were determined using a radio HPLC assay. The turnover of different substrates by active MMP-2 and active MMP-9 was determined using this assay. […] The radiolabel was detected by a IN/US beta ram detector. […]

The test system of data set [2] is CC(=O)N1CCC[C@H]1C(=O)N[C@@H](CCCN)C(=O)NCC(=O)N[C@@H](CCc1ccccc1)C(=O)N[C@@H](CC(C)C)C(=O)NNC(=O)c1ccc(N/N=C/c2ccccc2S(=O)(=O)O)nc1. The data set is described as above. It is filed as biochemical, human. The settings on record: other: active MMP-9 final concentration 2 nM, 37° C., 60 minutes, radiolabeled test substrate, pH 7.5.
Method: as §1, §2, §3

Chain of MMP-9 (Homo sapiens) (chain, as listed by the source): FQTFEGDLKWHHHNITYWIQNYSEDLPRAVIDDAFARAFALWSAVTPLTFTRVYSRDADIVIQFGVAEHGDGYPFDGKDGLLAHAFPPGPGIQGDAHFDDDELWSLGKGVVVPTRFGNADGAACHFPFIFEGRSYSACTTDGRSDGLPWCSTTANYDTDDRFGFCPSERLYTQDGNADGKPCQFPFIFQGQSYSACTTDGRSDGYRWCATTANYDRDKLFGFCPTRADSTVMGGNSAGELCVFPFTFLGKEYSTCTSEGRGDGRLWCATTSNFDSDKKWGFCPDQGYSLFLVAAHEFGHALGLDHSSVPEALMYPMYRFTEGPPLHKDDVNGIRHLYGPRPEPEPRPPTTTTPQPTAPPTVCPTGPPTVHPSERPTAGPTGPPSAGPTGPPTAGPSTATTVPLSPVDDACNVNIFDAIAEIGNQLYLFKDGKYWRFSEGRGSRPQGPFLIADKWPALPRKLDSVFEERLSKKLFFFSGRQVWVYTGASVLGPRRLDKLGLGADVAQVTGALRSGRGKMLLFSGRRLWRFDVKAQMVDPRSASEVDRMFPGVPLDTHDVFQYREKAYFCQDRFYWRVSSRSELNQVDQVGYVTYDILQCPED

As for MMP-9 (Homo sapiens), the catalytic efficiency (kcat/Km) was over 100000 M⁻¹ s⁻¹ in data set [1] and 4450 M⁻¹ s⁻¹ in data set [2].

By kcat/Km is commonly meant the turnover number divided by the Michaelis constant.
